Assay results taken from publication PMC3271077.
Where two headings read alike, the source gives them in different places.

What was measured:
Assay in all cases: SPR; Biacore 3000; HopZ1a proteins, GST or BSA immobilised on CM5 chips by amine coupling; 500 µg/ml (Figure S1A: 250 µg/ml) tubulin injected; 25°C, HBS-EP running buffer (0.01 M HEPES pH 7.4, 0.15 M NaCl, 3 mM EDTA, 0.005% Surfactant P20)
[1] = biological target: GST-HopZ1a (Pseudomonas syringae pv. syringae A2) (UniProt Q6VE93)
[2] = biological target: HIS-HopZ1a (Pseudomonas syringae pv. syringae A2) (UniProt Q6VE93)
[3] = biological target: HIS-HopZ1a(C216A) (Pseudomonas syringae pv. syringae A2) (UniProt Q6VE93)
[4] = biological target: HIS-HopZ1a (Pseudomonas syringae pv. syringae A2) (UniProt Q6VE93); remark: listed apart in the source
[5] = biological target: HIS-HopZ1a(K289R) (Pseudomonas syringae pv. syringae A2) (UniProt Q6VE93)

Substance	RU difference [1] [RU]	RU difference [2] [RU]	RU difference (250 µg/ml tubulin) [2] [RU]	RU difference (6973 RU HIS-HopZ1a immobilised) [2] [RU]	RU difference (13598 RU HIS-HopZ1a immobilised) [2] [RU]	RU difference (18289 RU HIS-HopZ1a immobilised) [2] [RU]	RU difference [3] [RU]	RU difference (250 µg/ml tubulin) [3] [RU]	RU difference [4] [RU]	RU difference [5] [RU]
bovine brain tubulin heterodimers (from UniProt Q6B856 1-445) (complex)	36	1050	630	59	324	615	1150	463	117	186
soybean tubulin (complex)	305	1230								
